According to the RNAGym collection of RNA variant scans (doi:10.1073/pnas.2313332121):

B1: TPR t1 (parent)
chain: GACCAAUCUGCCCUCAGAGCUCGAGAACAUCUUCGGAUGCAGAGGAGGCAGGCUUCGGUGGCGCGAUAGCGCCAACGUCCUCAACCUCCAAUGCAUCCCACCACAUGAUGAUGCCUGAAGAGCCUUGGUUUUUUG

Variants of: B1
Assay: polymerase ribozyme fitness, log enrichment relative to wild type (log ratio); higher = more active; in vitro selection for triplet polymerase activity
In short: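 To select mutant libraries of each subunit of a heterodimeric triplet polymerase ribozyme, built by PCR and transcribed, each was annealed with a biotinylated primer, partner subunit and triplets, then incubated frozen at −7 °C. Extended constructs were gel-excised, captured on streptavidin beads and amplified by RT-PCR, in one round carried out in triplicate. Illumina sequencing of input and output libraries kept genotypes with ≥10 input reads and ≥1 read per output. Fitness is the base-2 logarithm of genotype enrichment relative to wild-type enrichment, from inverse-variance-weighted replicate averages.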

Row | Variant | polymerase ribozyme fitness (log ratio)
1 | C4A G36A | -2.02
2 | A5U A6U C62G C104U | -1.25
3 | A5G C56G | -0.49
4 | A5U A6C G47A | -1.7
5 | A5G C8G | -0.847
6 | A5G G48C G63A G117C | -6.49
7 | C4U U87A | -1.16
8 | A5C G47A U59A A100C U106C | -4.2
9 | C4A G52C A74C | -2.47
10 | C4U U92A | -4.01
11 | A5G U112A G127U | 0.804
12 | A5U A27U | -3.65
13 | C4G C13U U21C C62G G120U | -2.48
14 | A5U A18C | -1.31
15 | C4U G17C G48A G69C G120C | -4.5
16 | C4G C13A | -3.23
17 | C4G C13G | -3.83
18 | A5C G51C G77A C80G | -0.996
19 | A5G C56A A74G C97U C123A | 0.643
20 | C4U A43U C88U U92G | -2.04
21 | C4G A37G C53U A111C | -1.68

Row | Variant | polymerase ribozyme fitness (log ratio)
22 | A5U A41U G61A C82G G120A U125G | -2.7
23 | A5U C11A G42C C88U U106A A121C U125A | -1.65
24 | C4G G57C C89A C123A | -3.43
25 | A5G G44U G52A | -2
26 | C4U C11A A50C C85U U112C | -1.65
27 | A5C C34A G42C C88U | -5.7
28 | A5U C15A | -2.36
29 | C4G C72U | -1.37
30 | A5G C49A C53U C85A G135U | -3.84
31 | A5U C8A | 0.0555
32 | C4G A27G A29G | -5.02
33 | A5U C124A | 2.04
34 | A5G G120C | 0.0754
35 | C4G A5G C53A C89A G113U C114U G122U U129G | -4.07
36 | A5G C40U G69U A100G | -1.21
37 | A5G C89G | -1.15
38 | C4U A46U A95C | -2.04
39 | A5C C40U U67C C104G C123G G128A | -6.57
40 | C4U A41U G44A G45A C53U G63C | -6.08
41 | A5C C8U A16U G45U G63A | -2.38
42 | C4A G60A | -0.949

Row | Variant | polymerase ribozyme fitness (log ratio)
43 | A5U C11G C64U U78C U126C | -0.928
44 | C4G C13U C53U A68G C115G A121U | -1.92
45 | A5G A27U A111G | -3.24
46 | C4G C15U U96A G127C | -2.26
47 | C4G U9C G57A G63C C79A A84C C89U | -4.8
48 | A5C G48C U78A C115A | -2.4
49 | A5G U9A G52U | -1.25
50 | C4G U78C C88U C94G C124U | -2.42
51 | A5U C56A | -0.829
52 | A5C U7C A29G G71A C89U G93C | -4.81
53 | C4G A43U A46G G113A | -3.76
54 | C4U A43U | -2.23
55 | A5U C72U G128U | -2.15
56 | A5G C12A G45A U78C C88A | -0.938
57 | C4G C15U | -2.66
58 | A5U C53A C62A G110U U130C | -4.41
59 | C4U G60U C114U | -3.78
60 | A5C C8G A26U | -1.68
61 | A5C U9C C28G C56U G120A | -1.71
62 | A5G U112C C124G G128A | -0.522
63 | A5U C31A G71A A84C C124A | -6.43

Row | Variant | polymerase ribozyme fitness (log ratio)
64 | A5C G63A C79U | -1.41
65 | C4U A27U C72U | -2.49
66 | A5U C13A C15G C56A A121U | -1.44
67 | A5U C12U U125A | -0.727
68 | C4U C49U C85U C89G | -2.63
69 | C4U G63U | -1.66
70 | A5G C15G U32A G63U U112C A119U | -5.37
71 | A5C U78C G127C U129C | -2.19
72 | A5U C53A C72U C104U G113C | -2.38
73 | C4U C11G U54A G63C C101A U112C | 0.841
74 | A5G C124A | 1.03
75 | C4G C12A C40A C72U G77U | -3.43
76 | A5U C12U U78C C80U | -1.23
77 | C4U G36U C73U G127A | -2.05
78 | A5U C22A | -3.71
79 | A5G C40U G45U A50C U125A | -4.22
80 | C4G U32A G71U A121C U129A | -4.53
81 | C4U C8G C13A U21G G77U C82A A84U A121C | -0.469
82 | C4A G36U C70U | -3.69
83 | C4G C34A C72G | -5.9
